Experimental data taken from patent publication US20170327598A1 (published 2017).
Like-named read-outs stand apart in the source and are kept apart here.

How the values were obtained:
Test in all cases: sandwich ELISA, STAT protein coated at 0.5 µg/mL
STAT 1 protein [1] = biological target: T1, STAT 1 protein (UniProt P42224 1-750, limits assumed)
T1 sequence (looked up): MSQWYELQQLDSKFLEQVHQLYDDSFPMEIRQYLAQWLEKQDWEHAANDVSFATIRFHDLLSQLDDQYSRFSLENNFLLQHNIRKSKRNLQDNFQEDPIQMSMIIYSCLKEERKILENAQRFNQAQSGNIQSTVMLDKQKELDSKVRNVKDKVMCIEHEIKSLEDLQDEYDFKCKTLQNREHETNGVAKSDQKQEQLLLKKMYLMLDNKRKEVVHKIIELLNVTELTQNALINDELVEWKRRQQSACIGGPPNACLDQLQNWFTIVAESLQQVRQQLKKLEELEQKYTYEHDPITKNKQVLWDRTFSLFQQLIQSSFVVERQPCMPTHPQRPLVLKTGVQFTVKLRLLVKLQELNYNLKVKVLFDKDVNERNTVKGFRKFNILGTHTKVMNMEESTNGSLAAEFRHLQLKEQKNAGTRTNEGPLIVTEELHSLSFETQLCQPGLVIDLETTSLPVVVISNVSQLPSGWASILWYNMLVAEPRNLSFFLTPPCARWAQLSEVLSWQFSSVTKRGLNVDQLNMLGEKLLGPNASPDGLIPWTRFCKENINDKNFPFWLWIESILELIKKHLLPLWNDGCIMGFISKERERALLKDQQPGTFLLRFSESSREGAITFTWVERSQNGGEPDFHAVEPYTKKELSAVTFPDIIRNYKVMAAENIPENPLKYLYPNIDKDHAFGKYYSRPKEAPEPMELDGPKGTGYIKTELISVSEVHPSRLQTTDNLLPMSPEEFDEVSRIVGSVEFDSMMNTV

STAT 2 protein [2] = biological target: T2, STAT 2 protein (UniProt P52630 1-851, limits assumed)
T2 sequence (P52630 whole entry): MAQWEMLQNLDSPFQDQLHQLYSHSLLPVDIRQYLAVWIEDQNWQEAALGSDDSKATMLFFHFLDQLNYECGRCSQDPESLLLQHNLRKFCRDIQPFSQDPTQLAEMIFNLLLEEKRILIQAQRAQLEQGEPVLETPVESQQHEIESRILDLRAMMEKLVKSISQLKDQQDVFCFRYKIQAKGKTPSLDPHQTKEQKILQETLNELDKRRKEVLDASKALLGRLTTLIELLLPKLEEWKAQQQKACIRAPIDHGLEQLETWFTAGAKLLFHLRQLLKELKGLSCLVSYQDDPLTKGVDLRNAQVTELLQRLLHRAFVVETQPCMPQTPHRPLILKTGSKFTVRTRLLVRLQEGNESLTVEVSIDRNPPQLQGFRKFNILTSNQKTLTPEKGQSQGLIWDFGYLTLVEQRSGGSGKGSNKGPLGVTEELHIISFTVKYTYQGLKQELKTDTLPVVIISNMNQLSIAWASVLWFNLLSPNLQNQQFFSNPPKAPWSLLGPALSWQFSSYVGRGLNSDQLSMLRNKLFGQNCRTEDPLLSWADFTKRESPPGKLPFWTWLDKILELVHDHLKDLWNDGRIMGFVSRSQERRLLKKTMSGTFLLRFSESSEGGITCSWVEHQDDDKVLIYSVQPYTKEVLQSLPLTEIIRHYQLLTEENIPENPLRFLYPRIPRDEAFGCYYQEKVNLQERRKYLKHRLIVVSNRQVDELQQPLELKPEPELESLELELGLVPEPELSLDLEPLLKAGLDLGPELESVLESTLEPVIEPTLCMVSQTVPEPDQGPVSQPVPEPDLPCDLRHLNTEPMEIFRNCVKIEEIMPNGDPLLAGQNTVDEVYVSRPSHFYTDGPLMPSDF

STAT 3 protein [3] = biological target: T3, STAT 3 protein (UniProt P40763 1-770, limits assumed)
STAT 4 protein = biological target: T4, STAT 4 protein (UniProt Q14765 1-748, limits assumed)
T4 sequence (looked up): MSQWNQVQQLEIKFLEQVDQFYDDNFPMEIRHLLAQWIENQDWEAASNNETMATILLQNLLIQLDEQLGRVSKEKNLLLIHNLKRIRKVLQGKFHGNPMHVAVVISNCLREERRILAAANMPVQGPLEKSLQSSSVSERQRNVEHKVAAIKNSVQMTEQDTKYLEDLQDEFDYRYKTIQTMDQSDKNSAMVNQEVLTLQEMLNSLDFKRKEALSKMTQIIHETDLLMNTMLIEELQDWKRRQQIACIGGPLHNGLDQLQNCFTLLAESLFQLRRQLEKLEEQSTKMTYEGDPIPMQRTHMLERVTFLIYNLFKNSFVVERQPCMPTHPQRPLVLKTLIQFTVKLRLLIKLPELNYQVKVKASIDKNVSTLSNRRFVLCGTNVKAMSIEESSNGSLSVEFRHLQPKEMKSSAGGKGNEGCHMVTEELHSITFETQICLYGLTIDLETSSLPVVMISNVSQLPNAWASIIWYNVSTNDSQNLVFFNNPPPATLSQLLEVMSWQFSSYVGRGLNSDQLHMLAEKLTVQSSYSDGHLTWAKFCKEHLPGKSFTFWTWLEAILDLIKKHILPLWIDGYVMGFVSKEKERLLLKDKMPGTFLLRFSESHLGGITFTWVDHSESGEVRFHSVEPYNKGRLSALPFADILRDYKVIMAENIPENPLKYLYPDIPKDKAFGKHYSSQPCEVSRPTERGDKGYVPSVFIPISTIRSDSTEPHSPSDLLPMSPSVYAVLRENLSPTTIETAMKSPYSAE

STAT 5a protein [4] = biological target: T5, STAT 5a protein (UniProt P42229 1-794, limits assumed)
T5 sequence (looked up): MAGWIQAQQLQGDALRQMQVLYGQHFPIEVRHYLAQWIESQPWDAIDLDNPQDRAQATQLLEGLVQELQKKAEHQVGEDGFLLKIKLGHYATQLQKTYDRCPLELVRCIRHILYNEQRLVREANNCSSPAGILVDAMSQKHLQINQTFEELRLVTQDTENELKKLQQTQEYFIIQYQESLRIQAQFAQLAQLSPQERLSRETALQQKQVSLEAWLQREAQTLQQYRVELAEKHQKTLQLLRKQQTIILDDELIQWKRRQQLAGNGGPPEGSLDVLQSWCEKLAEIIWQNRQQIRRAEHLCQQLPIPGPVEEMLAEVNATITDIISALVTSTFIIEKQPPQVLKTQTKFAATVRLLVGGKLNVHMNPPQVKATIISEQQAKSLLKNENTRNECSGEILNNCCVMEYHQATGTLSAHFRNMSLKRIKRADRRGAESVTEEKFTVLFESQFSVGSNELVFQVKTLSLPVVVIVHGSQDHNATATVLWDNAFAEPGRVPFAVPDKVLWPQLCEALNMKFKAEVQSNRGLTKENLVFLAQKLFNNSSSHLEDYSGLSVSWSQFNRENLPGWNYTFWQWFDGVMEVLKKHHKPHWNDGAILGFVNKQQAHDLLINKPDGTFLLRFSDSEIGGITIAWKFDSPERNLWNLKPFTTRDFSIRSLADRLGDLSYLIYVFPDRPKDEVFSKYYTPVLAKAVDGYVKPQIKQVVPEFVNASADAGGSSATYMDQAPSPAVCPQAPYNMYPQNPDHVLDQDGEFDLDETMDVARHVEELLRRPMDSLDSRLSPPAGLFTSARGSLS

STAT 1 protein [5] = biological target: T1, STAT 1 protein; remark: listed apart in the source
STAT 2 protein [6] = biological target: T2, STAT 2 protein; remark: listed apart in the source
STAT 3 protein [7] = biological target: T3, STAT 3 protein; remark: listed apart in the source
STAT 5a protein [8] = biological target: T5, STAT 5a protein; remark: listed apart in the source

B1: anti-STAT3 VHH13 (SEQ ID NO:3) sdAb (VHH)
VHH: HVQLVESGGGSVQAGGSLRLSCAASGANGGRSCMGWFRQVPGKEREGVSGISTGGLITYYADSVKGRFTISQDNTKNTLYLQMNSLKPEDTAMYYCATSRFDCYRGSWFNRYMYNSWGQGTQVTVSS
STAT 1 protein [1]
  Mean OD450: 1.94 OD450
STAT 2 protein [2]
  Mean OD450: 1.85 OD450
STAT 3 protein [3]
  Mean OD450: 2.76 OD450
STAT 4 protein
  Mean OD450: 3.14 OD450
STAT 5a protein [4]
  Mean OD450: 2.73 OD450
STAT 1 protein [5]
  Mean OD450: 0.026 OD450
STAT 2 protein [6]
  Mean OD450: 0.023 OD450
STAT 3 protein [7]
  Mean OD450: 0.063 OD450
STAT 5a protein [8]
  Mean OD450: 0.107 OD450
